According to PMC5716667:

Molecular target: COPI coatomer (heptameric complex) (Chlamydomonas reinhardtii (endogenous in C. reinhardtii cells))
Assay: cryo-EM structure; in situ cryo-electron tomography of cryo-FIB milled vitrified C. reinhardtii cells, reference-free subtomogram averaging of the COPI triad with three-fold symmetry, 20 Å; PDB 5A1U fitted as a rigid body; separate averages of buds, vesicles and Golgi regions

- stoichiometry N: 3
Substance: COPI coatomer (heptameric complex)
